US20150239980A1 (NEOTOPE BOSCIENCES, published 2015)
Residue numbers refer to the chain shown, from its start. Values belong to the binder of their own block, whether it stands above or below them.

Tests used:
[1] = molecular target: T1, recombinant hMCAM-His (human, UniProt P43121 24-559); assay: competitive ELISA on hMCAM-His, competitor biotinylated rodent or chimeric 2107; Expt. #1; vs rodent 2107
T1 construct: not shown: His tag
T1 chain: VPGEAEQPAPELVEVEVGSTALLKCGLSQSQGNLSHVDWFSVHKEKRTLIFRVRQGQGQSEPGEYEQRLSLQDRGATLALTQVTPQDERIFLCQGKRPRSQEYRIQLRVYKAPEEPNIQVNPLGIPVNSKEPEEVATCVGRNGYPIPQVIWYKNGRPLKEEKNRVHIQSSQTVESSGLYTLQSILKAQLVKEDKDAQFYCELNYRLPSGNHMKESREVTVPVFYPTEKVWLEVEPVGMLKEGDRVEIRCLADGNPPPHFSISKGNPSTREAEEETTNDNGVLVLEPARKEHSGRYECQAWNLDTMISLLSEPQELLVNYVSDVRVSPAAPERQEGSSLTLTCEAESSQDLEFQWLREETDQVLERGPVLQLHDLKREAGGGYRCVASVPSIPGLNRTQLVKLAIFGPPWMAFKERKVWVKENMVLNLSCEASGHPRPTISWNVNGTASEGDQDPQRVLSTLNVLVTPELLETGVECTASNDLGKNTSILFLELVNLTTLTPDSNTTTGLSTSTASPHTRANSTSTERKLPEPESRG
Procedure: (§1) ELISA plates were coated with recombinant hMCAM-His, and blocked with casein buffer to prevent non-specific binding. Biotinylated rodent or chimeric antibody was added at a subsaturating concentration, in the presence or absence of 3× increasing concentrations of unlabeled competitor (humanized antibody, rodent, or chimeric). After washing to remove unbound antibody, streptavidin HRP was added to allow detection of the biotinylated antibody. The ELISA was developed with TMB substrate and the OD450 was measured. The IC50 of the unlabeled competitor was determined using the GraphPad Prism5 software.

[2] = molecular target: T1, recombinant hMCAM-His; assay: ForteBio Octet Red, hMCAM-His analyte; Expt. #1; vs rodent 2107
Procedure: (§2) The affinities were measured using the ForteBio Octet Red. Anti-human Fc sensors were used to capture the humanized antibodies, and several concentrations of hMCAMHis analyte were used to determine the affinity using a 1:1 fitting model.

[3] = molecular target: T2, human MCAM (melanoma cell adhesion molecule) expressed on transfected CHO cells (human, UniProt P43121 24-646); assay: flow cytometry, human MCAM CHO cells preincubated with antibody, competitor recombinant human laminin 411 at 20 ug/ml
T2 construct: also called hMCAM; CD146
T2 chain: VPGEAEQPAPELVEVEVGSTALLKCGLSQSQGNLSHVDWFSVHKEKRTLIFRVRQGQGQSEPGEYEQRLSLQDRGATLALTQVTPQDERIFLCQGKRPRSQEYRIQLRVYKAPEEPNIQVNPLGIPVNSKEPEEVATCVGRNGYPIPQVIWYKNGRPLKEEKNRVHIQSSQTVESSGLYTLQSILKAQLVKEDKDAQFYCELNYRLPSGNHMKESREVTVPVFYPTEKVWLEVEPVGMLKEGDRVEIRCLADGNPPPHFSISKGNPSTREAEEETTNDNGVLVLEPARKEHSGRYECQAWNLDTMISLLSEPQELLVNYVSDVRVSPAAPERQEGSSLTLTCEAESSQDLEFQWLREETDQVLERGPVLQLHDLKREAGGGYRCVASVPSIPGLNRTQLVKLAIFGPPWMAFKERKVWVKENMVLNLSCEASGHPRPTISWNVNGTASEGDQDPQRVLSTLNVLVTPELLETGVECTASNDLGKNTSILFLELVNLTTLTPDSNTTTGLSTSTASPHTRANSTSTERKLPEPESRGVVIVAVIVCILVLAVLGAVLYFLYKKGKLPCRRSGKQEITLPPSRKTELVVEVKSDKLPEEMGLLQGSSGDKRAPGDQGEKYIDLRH
Procedure: The 87 independent mouse fusion clones and 26 independent rat fusion clones described in Example 10 above as being capable of (i) binding to human MCAM, and (ii) blocking the interaction between human MCAM and the α-4 chain of laminin were further characterized as follows. First, IC50 quantitation for the ability of the monoclonal antibody to block the binding of human MCAM to the α-4 chain of laminin was determined as follows. CHO cells expressing human MCAM were incubated with an anti-human MCAM antibody (at various concentrations) for 30 minutes at 4 degrees Celsius. […] Unbound laminin was then washed away, and the laminin bound to the surface of the cells was detected with fluorescently labeled anti-laminin antibodies. After washing, the amount of laminin bound to the surface was detected by flow cytometry, and IC50s were calculated based on the mean fluorescent intensity.
These six anti-MCAM monoclonal antibody clones are herein referred to as (i) the mouse anti-human MCAM monoclonal clones 1174.1.3, 1414.1.2, 1415.1.1, and 1749.1.3, and (ii) the rat anti-human MCAM monoclonal antibody clones 2120.4.19 and 2107.4.10. […] As such, each of these specific monoclonal antibodies was very capable of binding to human MCAM and inhibiting the interaction of cell-expressed human MCAM with its α-4 laminin binding ligand.

[4] = molecular target: T3, Recombinant human Fc-tagged MCAM IgG1-2A (human MCAM domains 1 and 2, amino acids 19-242) (human, UniProt P43121 19-242); assay: ForteBio domain mapping as in Example 8
T3 construct: also called human MCAM IgG1-2A; MCAM Fc domains 1 and 2; not shown: human Fc tag
T3 sequence: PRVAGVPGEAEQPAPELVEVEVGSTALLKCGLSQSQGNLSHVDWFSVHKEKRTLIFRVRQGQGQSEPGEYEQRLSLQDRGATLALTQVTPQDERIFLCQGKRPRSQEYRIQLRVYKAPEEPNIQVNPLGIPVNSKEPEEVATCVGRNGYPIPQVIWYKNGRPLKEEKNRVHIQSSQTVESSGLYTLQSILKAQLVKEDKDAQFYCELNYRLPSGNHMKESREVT

[5] = molecular target: T4, human MCAM domain 3 (amino acids 244-321), Fc-tagged (human, UniProt P43121 244-321); assay: ForteBio domain mapping as in Example 8
T4 construct: also called domain 3 of the human MCAM protein
T4 sequence: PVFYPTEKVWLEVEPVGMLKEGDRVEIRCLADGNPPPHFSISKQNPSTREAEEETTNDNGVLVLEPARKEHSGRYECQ

[6] = molecular target: T5, human MCAM domain 2 (amino acids 139-242), Fc-tagged (human, UniProt P43121 139-242); assay: ForteBio domain mapping as in Example 8
T5 sequence: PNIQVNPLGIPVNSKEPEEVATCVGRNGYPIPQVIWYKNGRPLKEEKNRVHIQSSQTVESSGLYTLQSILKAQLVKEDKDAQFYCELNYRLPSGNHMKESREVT

[7] = molecular target: T6, human MCAM domain 1 (amino acids 19-129), Fc-tagged (human, UniProt P43121 19-129); assay: ForteBio domain mapping as in Example 8
T6 construct: also called MCAM Fc domain 1
T6 sequence: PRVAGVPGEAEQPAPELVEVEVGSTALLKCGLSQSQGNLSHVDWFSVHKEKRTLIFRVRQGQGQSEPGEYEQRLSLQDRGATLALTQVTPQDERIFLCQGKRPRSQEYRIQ

[8] = molecular target: T1, recombinant hMCAM-His; assay: competitive ELISA on hMCAM-His, competitor biotinylated rodent or chimeric 1749; Expt. #2; vs rodent 1749
Procedure: as §1

[9] = molecular target: T2, human MCAM (melanoma cell adhesion …); assay: laminin/FACS on hMCAM CHO cells, competitor laminin 411; Expt#2; vs rodent 1749
Procedure: (§3) Following incubation for 30-45 minutes, the cells were washed and anti-laminin conjugated to AF650 (NovusBio) was added to detect the bound laminin. The cells were run on a flow cytometer to measure the laminin binding signal.

[10] = molecular target: T2, human MCAM (melanoma cell adhesion …); assay: summary of laminin blocking assay on hMCAM CHO cells, competitor laminin 411; vs rodent 1749
Procedure: as §3

[11] = molecular target: T1, recombinant hMCAM-His; assay: ForteBio Octet Red, hMCAM-His analyte; Forte column 1; vs rodent 1749
Procedure: as §2

[12] = molecular target: T2, human MCAM (melanoma cell adhesion …); assay: laminin/FACS on hMCAM CHO cells, competitor laminin 411; Expt#1; vs rodent 1749
Procedure: as §3

[13] = molecular target: T1, recombinant hMCAM-His; assay: competitive ELISA on hMCAM-His, competitor biotinylated rodent or chimeric 1749; vs rodent 1749
[14] = molecular target: T1, recombinant hMCAM-His; assay: summary of ForteBio and competitive ELISA on hMCAM-His; vs rodent 1749
Procedure: as §1, §2

B1: h2107_VH4 + h2107_VL2 (antibody, human IgG1, V domains shown)
VH: QVTLKESGPVLVKPTETLTLTCTVSGFSLTSSGVSWVRQPPGKALEWIAAISSGGSTYYNSAFKSRLTISPDTSKSQVVLTMTNMDPVDTATYYCARHRPFYFDYWGQGTLVTVSS
VL: DIQMTQSPSSLSASVGDRVTITCKGSQNIYKSLAWFQLKPGKVPKLLIYDANSLQTGIPSRFSGSGSGTDFTLTISSLQPEDVATYYCQQYYSGYTFGGGTKVEIK
fold over rodent (competitive ELISA) [1]: 11.7 fold
fold over rodent (Forte affinity) [2]: 5.59 fold

B3: mouse anti-human MCAM monoclonal antibody clone 1174.1.3 (antibody, V domains shown)
VH: QIQLVQSGPELKKPGETVKISCKASGYTFTNYGMNWVKQAPGKGLKWMGWINTYTGEPTYADDFKGRFALSLETSASTAYLQINNLKNEDMATYFCARYRYNKYERAMDYWGQGTSVTVSS
VL: DIVLTQSPASLAVSLGQRATISCRASKSVSTSGYSYMYWYQQKPGQPPKLLIYLASNLESGVPARFSGSGSGTDFTLNIHPVEEEDAATYYCQHSRELPFTFGSGTKLEIK
notes: mouse hybridoma antibody
IC50 [3]: 0.469 µg/mL
binding result [4]: no binding
binding result [5]: binds
binding result [6]: no binding
binding result [7]: no binding

B5: chimeric 1749 TM (antibody, V domains shown)
VH: DVKLVESGGDLVKPGGSLKLSCAASGFTFSSYIMSWVRQTPEKRLEWVATISSGGSSTYYPDSVKGRFTISRDNAKNTLYLQMSSLKSEDTAMYYCTRDDDYDVKVFAYWGQGTLVTVSA
VL: DIVMSQSPSSLAVSAGEKVTMNCKSSRSLLNSRIRKNYLAWYQQKPGQSPKLLIYWASTRESGVPDRFTGSGSGTDFTLTISSVQAEDLAVYYCKQSYNLLTFGAGTKLELK
fold over rodent (competitive ELISA) [8]: 1.07 fold

B6: h1749VH1 + h1749VL2 (antibody, human IgG1, V domains shown)
VH: EVQLVESGGGLVQPGGSLRLSCAASGFTFSSYIMSWVRQAPGKGLEWVATISSGGSSTYYPDSVKGRFTISRDNAKNSLYLQMNSLRAEDTAVYYCTRDDDYDVKVFAYWGQGTMVTVSS
VL: DIVMTQSPDSLAVSLGERATINCKSSRSLLNSRIRKNYLAWYQQKPGQPPKLLIYWASTRESGVPDRFTGSGSGTDFTLTISSLQAEDVAVYYCKQSYNLLTFGQGTKVEIK
fold over rodent (blocking, laminin/FACS) [9]: 1.2 fold
fold reduction in potency compared to the rodent [10]: < 2 fold
fold over rodent (Forte affinity) [11]: 2.5 fold
fold over rodent (blocking, laminin/FACS) [12]: 1.1 fold
fold over rodent (competitive ELISA) [13]: 1 fold
fold reduction in affinity compared to the rodent [14]: < 2 fold

B7: h1749VH2 + h1749VL1 (antibody, human IgG1, V domains shown)
VH: B6 VH with G44R
VL: B6 VL with T69S
notes: also called h1749VH2VL1
fold over rodent (blocking, laminin/FACS) [9]: 1.8 fold
fold reduction in potency compared to the rodent [10]: < 2 fold
fold over rodent (Forte affinity) [11]: 1.2 fold
fold over rodent (blocking, laminin/FACS) [12]: 1.5 fold
fold over rodent (competitive ELISA) [13]: 1 fold
fold reduction in affinity compared to the rodent [14]: < 2 fold

Now from value to binder:

IC50 [3]: 0.307 µg/mL
binding result [4]: no binding
binding result [5]: binds
binding result [6]: no binding
binding result [7]: no binding
B2: mouse anti-human MCAM monoclonal antibody clone 1415.1.1 (antibody, V domains shown)
VH: QVQLQQPGAELVQPGAPVKLSCKASGYIFTSYWMNWVKQRPGRGLEWIGRIDPSDSKIHYNQKFKDKATLTVDRSSSTAYIQLGSLTSEDSAVYYCAKEGGLRRGDYAMDYWGQGTSVTVSS
VL: DIVMTQSPATLSVTPGDRVSLSCRASQSISDYLHWYQQKSHESPRLLIKYASQSISGIPSRFSGSGSGSDFTLSINSVEPEDVGVYYCQNGHNFPRTFGGGTKLEIK
notes: mouse hybridoma antibody

IC50 [3]: 0.431 µg/mL
binding result [4]: no binding
binding result [5]: binds
binding result [6]: no binding
binding result [7]: no binding
B4: mouse anti-human MCAM monoclonal antibody clone 1414.1.2 (antibody, V domains shown)
VH: EIQLQQTGPELVKPGASVKISCKASGYSFTDYIMLWVKQSHGKSLEWIGNINPYSGSSGYNLKFKGKATLTVDKSSSTAYMQLNSLTSEDSAVYYCARGKDFAMDYWGQGTSVTVSS
VL: B5 VL with N22S, R27Q, R33S, I34T, Y38F, L100R, L101Y, A105G, L111I
notes: mouse hybridoma antibody
